Two molecules from publication doi:10.1101/2022.12.06.519310 (bioRxiv, 2022) can be followed below.

Ends that are not written are not given here. * marks the point of attachment. NHCH2CH2(5-OH-indol-3-yl) = Oc1ccc2[nH]cc(CCN*)c2c1

The experiment deals with full length recombinant WDR5 (human, UniProt P61964 1-334). In words: pull-down.

Consider ARTKQ(NHCH2CH2(5-OH-indol-3-yl))TARKS (also: biotinylated, position not given here) [biotinylated H3 (1-10) Q5ser peptide], for which the binding result is given as “binds”. Under ARTKQTARKS (also: biotinylated, position not given here) [biotinylated H3 (1-10) unmodified peptide] stands “binds”.
